One molecule from patent publication US20100158922A1 (published 2010) can be followed below.

The assay addresses T1, recombinant human IFNγ (human, UniProt P01579 24-166).
T1 chain: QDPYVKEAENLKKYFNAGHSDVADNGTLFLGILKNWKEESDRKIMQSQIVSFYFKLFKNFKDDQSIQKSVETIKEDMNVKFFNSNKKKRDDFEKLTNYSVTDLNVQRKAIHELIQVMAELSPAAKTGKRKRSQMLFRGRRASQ
In words: SPR (Biacore).

B1: NI-0501 (antibody, V domains shown)
VH: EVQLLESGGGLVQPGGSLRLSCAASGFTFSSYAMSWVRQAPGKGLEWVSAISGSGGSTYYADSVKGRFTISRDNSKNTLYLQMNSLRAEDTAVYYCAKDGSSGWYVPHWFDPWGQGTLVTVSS
VL: NFMLTQPHSVSESPGKTVTISCTRSSGSIASNYVQWYQQRPGSSPTTVIYEDNQRPSGVPDRFSGSIDSSSNSASLTISGLKTEDEADYYCQSYDGSNRWMFGGGTKLTVL
Consider B1, for which the Kd was 732 pM.
